{
  "source": "patent US7208301B2",
  "about": "“Method for producing 6-0-α-D-glucopyranosyl-D-sorbitol” (Südzucker Aktiengesellschaft Mannheim/Ochsenfurt, priority 1999, dated 2007)",
  "molecules": {"B1": {"name": "SDH: sorbitol dehydrogenase of Gluconobacter suboxidans DSM 2003, 262 amino acids (SEQ ID No. 1), purified per Example 1 (protein)", "chain": "MSKKFNGKVCLVTGAGGNIGLATALRLAEEGTAIALLDMNREALEKAEASVREKGVEARSYVCDVTSEEAVIGTVDSVVRDFGKIDFLFNNAGYQGAFAPVQDYPSDDFARVLTINVTGAFHVLKAVSRQMITQNYGRIVNTASMAGVKGPPNMAAYGASKGAIIALTETAALDLAPYNIRVNAISPGYMGPGFMWERQVELQAKVGSQYFSTDPKVVAQQMIGSVPMRRYGDINEIPGVVAFLLGDDSSFMTGVNLPIAGG", "modifications": "Gluconobacter suboxydans"}},
  "assay": "Storage stability of purified SDH",
  "assay_type": "physicochemical",
  "method": "In another preferred embodiment the temperature of the aqueous reaction solution is 20° C. to 40° C., especially 25° C., in the enzymatic conversion. At temperatures of 25° C. the purified SDH has stability of about a week. Thus, temperatures in this range are well-suited for conducting long-term enzyme-catalyzed processes.\nThe purified SDH can be stored for about 8 months at −30° C. and the SDH is stable for about 30 days at +4° C.",
  "data": [
    {"molecule": "B1", "values": [
      {"measurement": "stability of purified SDH", "setting": "at 25° C.", "result": "about a week"},
      {"measurement": "stability of SDH", "setting": "at +4° C.", "result": "about 30 days"},
      {"measurement": "storage time of purified SDH", "setting": "at −30° C.", "result": "about 8 months"}
    ]}
  ]
}
